The record followed here is US20160347847A1 (AGENUS, published 2016).

What is called EC50 (read off the curve) is the concentration at which the effect is half-maximal. Higher therefore signals lower potency in that assay.

Test [1] concerns the target T1, FcγRIIA with the high affinity 131 H/H polymorphism on Jurkat NFAT-luciferase reporter cells (UniProt P12318 34-317, limits assumed).
T1 sequence (looked up): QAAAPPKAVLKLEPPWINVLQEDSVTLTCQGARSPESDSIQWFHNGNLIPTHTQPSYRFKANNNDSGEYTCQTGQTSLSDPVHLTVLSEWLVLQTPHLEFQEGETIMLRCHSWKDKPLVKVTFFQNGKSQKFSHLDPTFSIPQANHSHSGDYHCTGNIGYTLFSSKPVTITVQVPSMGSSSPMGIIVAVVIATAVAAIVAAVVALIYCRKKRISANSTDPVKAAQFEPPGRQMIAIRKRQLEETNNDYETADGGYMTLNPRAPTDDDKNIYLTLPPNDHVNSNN
Nature of the test: cell-based or functional assay.

The target of another test is T2, P93A.
T2 construct: also called human OX40 alanine mutant P93A on 1624-5 cells
T2 receptor chain: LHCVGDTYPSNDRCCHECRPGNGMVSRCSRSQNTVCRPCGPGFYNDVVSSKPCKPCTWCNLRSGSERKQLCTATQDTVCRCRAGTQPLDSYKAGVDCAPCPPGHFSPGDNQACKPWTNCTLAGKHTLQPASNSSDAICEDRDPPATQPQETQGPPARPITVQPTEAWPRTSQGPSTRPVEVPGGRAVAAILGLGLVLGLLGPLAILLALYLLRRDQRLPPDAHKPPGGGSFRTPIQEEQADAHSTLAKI
The test is described as follows: flow cytometry on 1624-5 cells expressing the human OX40 alanine mutant; pab1928 at 1.1 and 0.4 µg/ml. The method, then:
(§1) This anti-OX40 antibody non-reactive cell population was subjected to a final, single-cell sorting step. […] The polyclonal anti-OX40 antibody (AF3388, R&D systems) conjugated with APC was diluted at 1:2000. Fc receptor block (1:200; BD Cat no. 553142) was added, and the samples were incubated for 20 minutes at 4° C. […] The cells were then washed and acquired using a flow cytometer (BD Biosciences).
For orientation: A flow cytometer gives signals particle by particle.

In another test the target is T3, P115A.
T3 construct: also called human OX40 alanine mutant P115A on 1624-5 cells
T3 receptor chain: T2 receptor chain with A93P, P115A
The description is as above. The method, then:
as §1

Another test deals with T4, N60A.
T4 construct: also called human OX40 alanine mutant N60A on 1624-5 cells
T4 receptor chain: T2 receptor chain with N60A, A93P
The description is as above. The method, then: as §1

For a further test, the target named is T5, R80A.
T5 construct: also called human OX40 alanine mutant R80A on 1624-5 cells
T5 receptor chain: T2 receptor chain with R80A, A93P
Described as above. As to the method: as §1

In another test the target is T6, W58A.
T6 construct: also called human OX40 alanine mutant W58A on 1624-5 cells
T6 receptor chain: T2 receptor chain with W58A, A93P
The test is described as above. The method, then: as §1

A further test addresses T7, L88A.
T7 construct: also called human OX40 alanine mutant L88A on 1624-5 cells
T7 receptor chain: T2 receptor chain with L88A, A93P
The description is as above. The method, then:
as §1

The target of the next test is T8, R62A.
T8 construct: also called human OX40 alanine mutant R62A on 1624-5 cells
T8 receptor chain: T2 receptor chain with R62A, A93P
Described as above. As to the method: as §1

The target in another test is T9, P99A.
T9 construct: also called human OX40 alanine mutant P99A on 1624-5 cells
T9 receptor chain: T2 receptor chain with A93P, P99A
The test is described as above. The method, then: as §1

Changes are numbered by the printed parent chain.

B1: pab2193-1 (antibody, human IgG2, kappa)
heavy: EVQLVESGGGLVQPGGSLKLSCAASGFTFSGSAMHWVRQASGKGLEWVGRIRSKANSYATAYAASVKGRFTISRDDSKNTAYLQMNSLKTEDTAVYYCTSGIYDSSGYDYWGQGTLVTVSSASTKGPSVFPLAPCSRSTSESTAALGCLVKDYFPEPVTVSWNSGALTSGVHTFPAVLQSSGLYSLSSVVTVPSSNFGTQTYTCNVDHKPSNTKVDKTVERKCCVECPPCPAPPVAGPSVFLFPPKPKDTLMISRTPEVTCVVVDVSHEDPEVQFNWYVDGVEVHNAKTKPREEQFNSTFRVVSVLTVVHQDWLNGKEYKCKVSNKGLPAPIEKTISKTKGQPREPQVYTLPPSREEMTKNQVSLTCLVKGFYPSDIAVEWESNGQPENNYKTTPPMLDSDGSFFLYSKLTVDKSRWQQGNVFSCSVMHEALHNHYTQKSLSLSPG
light: not shown
For the molecule B1, in test [1], the “EC50 (read off the curve)” value was roughly 1 nM.

B2: pab1928 (antibody, human IgG1, V domains shown)
VH: QVQLVQSGSELKKPGASVKVSCKASGYTFTDYSMHWVRQAPGQGLKWMGWINTETGEPTYADDFKGRFVFSLDTSVSTAYLQISSLKAEDTAVYYCANPYYDYVSYYAMDYWGQGTTVTVSS
VL: DIQMTQSPSSLSASVGDRVTITCKASQDVSTAVAWYQQKPGKAPKLLIYSASYLYTGVPSRFSGSGSGTDFTFTISSLQPEDIATYYCQQHYSTPRTFGQGTKLEIKR
notes: also called made from the variable regions of Hu106-122 (US 2013/0280275)
Regarding B2, the binding result with P93A is listed as “binds”; with P115A it was “binds”; in the test with N60A it was “binds”; with R80A it was “binds”; with W58A, “no binding (tested: 1.1 µg/ml)”; with L88A, “binds”. Moreover, the binding result with R62A and with P99A was “binds” in each case.
